In this assay the target is lysozyme (UniProt P00698). The assay can be described thus: ELISA; phage ELISA: lysozyme immobilised in a 96-well NUNC Maxisorp plate; 1ZVH displayed on phage. The following applies: one partner purified.
Chain of lysozyme (P00698 19-147): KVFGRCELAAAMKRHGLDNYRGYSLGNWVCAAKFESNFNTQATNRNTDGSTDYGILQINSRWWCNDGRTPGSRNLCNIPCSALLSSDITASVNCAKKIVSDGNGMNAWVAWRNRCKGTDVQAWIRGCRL

B1: camel nanobody 1ZVH, displayed on phage (VHH)
VHH: DVQLVESGGGSVQAGGSLRLSCAASGYIASINYLGWFRQAPGKEREGVAAVSPAGGTPYYADSVKGRFTVSLDNAENTVYLQMNSLKPEDTALYYCAAARQGWYIPLNSYGYNYWGQGTQVTVSS
notes: also called template of the ASyNAL library
Regarding B1, the binding result is given as “binds”.

For the origin of these results see publication PMC9479348 (Journal of Nanobiotechnology, 2022).
